# From patent US20120277142A1 (HANALL BIOPHARMA, published 2012)
# Target: T1, TNF-α (UniProt P01375 77-233, limits assumed)
# T1 construct: also called tumor necrosis factor; ligand
# Assay: competition ELISA: sample vs plate-bound TNFRI190 for TNF-α, from IC50, relative to wild-type TNFRI171
# Method: Each well was washed three times with 300 μL of washing buffer (0.05% Tween-20, PBS, pH 7.4) and incubated at room temperature for 2 hours with 300 μL of a blocking buffer (5% skim milk, PBS, pH 7.4). Then, each well was washed as mentioned above. A sample of interest was diluted to concentrations of 500 nM, 125 nM, 31 nM, 7.8 nM, 1.9 nM, 0.48 nM, 0.12 nM, and 0.03 nM in series and loaded in an amount of 100 μL into each well in duplicate. To each well was added 100 μL of 50 ng/ml TNF-α, followed by incubation at room temperature for 2 hours. After the wells were washed with a washing buffer, 100 μg/mL anti-TNF-α antibody solution was diluted 1/1000, added in an amount of 100 μL per each well, and incubated at room temperature for 2 hours. After the plates were washed with a washing buffer, a substrate was added in an amount of 100 μL to each well and reacted at room temperature for 15 min. In each well, 100 μL of the substrate 3,3′,5,5′-tetramethylbenzidine (RnD, Cat. No: DY999) was reacted at room temperature for 15 min, followed by adding 50 μL of 1.0 M sulfuric acid (Samchun Chemical, Cat. No: 52129) to each well to stop the reaction.
# The affinity of the Met-TNFRI for TNF-α was assayed using the same procedure as in [Experimental Example 1]
row,Relative Affinity for Ligand (%),Binder
1,563,"TNFRI171-S31 (receptor, Met-TNFRI171 superlead mutant made in E. coli) MDSVCPQGKYIHPQNNSICCTKCHKGTYVYNDCPGPGQDTDCRECESGSFTAIENFLPACLSCSKCRKEMGQVEISSCTVDRDTVCGCRKNQYRHYWSENLFQCFNCSLCLNGTVHLSCQEKQNTVCTCHAGFFLRENECVSCSNCKKSLECTKLCLPQIENVKGTEDSGTT"
2,668,"TNFRI171-S32 (receptor, Met-TNFRI171 superlead mutant made in E. coli) MDSVCPQGKYIHPQNNSICCTKCHKGTYLYNDCPGPGQDTDCRECESGSFTAIENFLPACLSCSKCRKEMGQVEISSCTVDRDTVCGCRKNQYRHYWSENLFQCFNCSLCLNGTVHLSCQEQQNTVCTCHAGFFLRENECVSCSNCKKSLECTKLCLPQIENVKGTEDSGTT"
3,705,"TNFRI171-S39 (receptor, Met-TNFRI171 superlead mutant made in E. coli) MDSVCPQGKYIHPQNNSICCTKCHKGTYLYNDCPGPGQDTDCRECESGSFTAMENFLPACLSCSKCRKEMGQVEISSCTVDRDTVCGCRKNQYRHYWSENLFQCFNCSLCLNGTVHLSCQEKQNTVCTCHAGFFLRENECVSCSNCKKSLECTKLCLPQIQNVKGTEDSGTT"
4,668,"TNFRI171-S37 (receptor, Met-TNFRI171 superlead mutant made in E. coli) MDSVCPQGKYIHPQNNSICCTKCHKGTYLYNDCPGPGQDTDCRECESGSFTAMENFLPACLSCSKCRKEMGQVEISSCTVDRDTVCGCRKNQYRHYWSENLFQCFNCSLCLNGTVHLSCQEQQNTVCTCHAGFFLRENECVSCSNCKKSLECTKLCLPQIENVKGTEDSGTT"
5,510,"TNFRI171-S36 (receptor, Met-TNFRI171 superlead mutant made in E. coli) MDSVCPQGKYIHPQNNSICCTKCHKGTYVYNDCPGPGQDTDCRECESGSFTAMENFLPACLSCSKCRKEMGQVEISSCTVDRDTVCGCRKNQYRHYWSENLFQCFNCSLCLNGTVHLSCQEKQNTVCTCHAGFFLRENECVSCSNCKKSLECTKLCLPQIENVKGTEDSGTT"
6,589,"TNFRI171-S38 (receptor, Met-TNFRI171 superlead mutant made in E. coli) MDSVCPQGKYIHPQNNSICCTKCHKGTYLYNDCPGPGQDTDCRECESGSFTAMENFLPACLSCSKCRKEMGQVEISSCTVDRDTVCGCRKNQYRHYWSENLFQCFNCSLCLNGTVHLSCQENQNTVCTCHAGFFLRENECVSCSNCKKSLECTKLCLPQIENVKGTEDSGTT"
7,521,"TNFRI171-S35 (receptor, Met-TNFRI171 superlead mutant made in E. coli) MDSVCPQGKYIHPQNNSICCTKCHKGTYLYNDCPGPGQDTDCRECESGSFTAIENFLPACLSCSKCRKEMGQVEISSCTVDRDTVCGCRKNQYRHYWSENLFQCFNCSLCLNGTVHLSCQEKQNTVCTCHAGFFLRENECVSCSNCKKSLECTKLCLPQIENVKGTENSGTT"
8,568,"TNFRI171-S33 (receptor, Met-TNFRI171 superlead mutant made in E. coli) MDSVCPQGKYIHPQNNSICCTKCHKGTYLYNDCPGPGQDTDCRECESGSFTAIENFLPACLSCSKCRKEMGQVEISSCTVDRDTVCGCRKNQYRHYWSENLFQCFNCSLCLNGTVHLSCQENQNTVCTCHAGFFLRENECVSCSNCKKSLECTKLCLPQIENVKGTEDSGTT"
9,700,"TNFRI171-S34 (receptor, Met-TNFRI171 superlead mutant made in E. coli) MDSVCPQGKYIHPQNNSICCTKCHKGTYLYNDCPGPGQDTDCRECESGSFTAIENFLPACLSCSKCRKEMGQVEISSCTVDRDTVCGCRKNQYRHYWSENLFQCFNCSLCLNGTVHLSCQEKQNTVCTCHAGFFLRENECVSCSNCKKSLECTKLCLPQIQNVKGTEDSGTT"
10,773,"TNFRI171-S40 (receptor, Met-TNFRI171 superlead mutant made in E. coli) MDSVCPQGKYIHPQNNSICCTKCHKGTYLYNDCPGPGQDTDCRECESGSFTAMENFLPACLSCSKCRKEMGQVEISSCTVDRDTVCGCRKNQYRHYWSENLFQCFNCSLCLNGTVHLSCQEKQNTVCTCHAGFFLRENECVSCSNCKKSLECTKLCLPQIENVKGTENSGTT"
